Reference: patent US20180066017A1, “CLASS I MHC PHOSPHOPEPTIDES FOR CANCER IMMUNOTHERAPY AND DIAGNOSIS” (Agenus Inc., priority 2010, published 2018)
Square brackets hold non-standard residues; d marks the D form. Ends that are not written are not given here. pS = N[C@@H](COP(=O)(O)O)C(=O)O

Experiments:
[1] = tested on: cancer cell lines COV413.AAD.A4, DM331.AAD.A4, SLM2.AAD.A1, MCF7.AAD.A2, MDAMB231.AAD; JY EBV-BLCL control; assay: Recognition of naturally processed and presented phosphopeptides on cancer cells by phosphopeptide-specific CTL (murine IFNγ release); type: cell-based; conditions: FIG. 1A/1B; for recognition of the phosphopeptide on control cell line by phosphopeptide-specific CTL (murine IFNγ): JY EBV-BLCL control cell line; for recognition of the phosphopeptide on cancer cell lines by phosphopeptide-specific CTL (murine IFNγ): ovarian carcinoma, melanoma and breast carcinoma cell lines
Protocol: FIGS. 1A and 1B are a graphic illustration of the recognition of naturally processed and presented phosphorylated peptides on cancer cells by the phosphopeptide-specific CTL. Phosphopeptide-specific CTL were incubated with the following cancer cell lines or EBV-transformed B lymphoblastoid cell lines (BLCL): COV413.AAD.A4 ovarian carcinoma, DM331.AAD.A4 and SLM2.AAD.A1 melanomas, MCF7.AAD.A2 and MDAMB231.AAD breast carcinomas, and JY EBV-BLCL. Supernatants were harvested and evaluated for the presence of murine IFNγ (produced by murine CTL lines). […] The designation “pS” denotes a phosphoserine residue. The ordinate indicates murine IFNγ in pg/ml. The abscissa indicates each cell line.

HLA A*0201 = HLA A*0201 (Homo sapiens, UniProt P04439, D140Y/D185E/D98H/E176V/E277Q/G131W/G231S/I119V/I121R/I166T/I218V/L300P/L318F/N151K/N90K/P208A/P217A/Q86G/Q94H/R138H/R169H/T345S); assay: Binding of IRS-2 phosphopeptides to HLA A*0201
Source text: (§1) We have also shown that we can clone the T-cell receptor on the murine cytotoxic T-cells and then inject the corresponding DNA into normal human T-cells. This process turns them into cytotoxic T-cells that now recognize cancer cells that express the same class I phosphopeptides derived from IRS-2 and β-catenin. […] These experiments also open the door for using class I phosphopeptides in adopted T-cell therapy of cancer. This approach has shown dramatic success in the treatment of advanced stage metastatic melanoma. […] RVApSPTSGV (SEQ ID NO: 1289) binds to HLA A*0201 and both RVApSPTSGVK (SEQ ID NO: 53) and RVApSPTSGVKR (SEQ ID NO: 54) bind to HLA A*0301.

HLA A*0301 = HLA A*0301 (Homo sapiens, UniProt P04439); assay: Binding / presentation of IRS-2 phosphopeptides by HLA A*0301
Source text: as §1

Row | binding to HLA A*0201 (HLA A*0201) | binding to HLA A*0301 (HLA A*0301) | Substance | recognition of the phosphopeptide on control cell line by phosphopeptide-specific CTL (murine IFNγ) [1] | recognition of the phosphopeptide on cancer cell lines by phosphopeptide-specific CTL (murine IFNγ) [1] | presentation by the A*0301 molecule (HLA A*0301)
1 |  |  | GLLGpSPVRA (GLLG[pS]PVRA) [phosphopeptide with phosphoserine residue recognized by CTL lines 6850 and 6960] | not the control cell line | recognize the phosphopeptide on all the cancer cell lines | 
2 | Neither of the A*0301 peptides bind | bind | RVApSPTSGVKR (RVA[pS]PTSGVKR) |  |  | 
3 | Neither of the A*0301 peptides bind | bind | RVApSPTSGVK (RVA[pS]PTSGVK) |  |  | 

Row | Substance | binding to HLA A*0201 (HLA A*0201) | binding to HLA A*0301 (HLA A*0301) | recognition of the phosphopeptide on control cell line by phosphopeptide-specific CTL (murine IFNγ) [1] | recognition of the phosphopeptide on cancer cell lines by phosphopeptide-specific CTL (murine IFNγ) [1] | presentation by the A*0301 molecule (HLA A*0301)
4 | RVApSPTSGV (RVA[pS]PTSGV) | binds |  | not the control cell line | recognize the phosphopeptide on all the cancer cell lines | cannot be presented
